What was measured:
[1] = target: T1, AGO2 (loaded with guide RNA) (Homo sapiens, UniProt Q9UKV8 1-859); assay: filter binding; Kd printed only in figure; similar to m9_22; 18 mM HEPES pH 7.4, 100 mM K-acetate, 1 mM Mg-acetate, 0.01% IGEPAL, 0.01 mg/mL yeast tRNA, 5 mM DTT, BSA, glycerol, 37 C, 4 h, 1-5 pM target; kinetics with 10; details: protein: recombinant, tags: 3xFLAG-SUMOEu1 (removed by SENPEuB cleavage), label: 32P target, seed g2-8 paired
[2] = target: T1, AGO2 (loaded with guide RNA); assay: filter binding; 18 mM HEPES pH 7.4, 100 mM K-acetate, 1 mM Mg-acetate, 0.01% IGEPAL, 0.01 mg/mL yeast tRNA, 5 mM DTT, BSA, glycerol, 37 C, 4 h, 1-5 pM target; kinetics with 10; details: protein: recombinant, tags: 3xFLAG-SUMOEu1 (removed by SENPEuB cleavage)
[3] = target: T1, AGO2 (loaded with guide RNA); assay: filter binding; range over four guides; 18 mM HEPES pH 7.4, 100 mM K-acetate, 1 mM Mg-acetate, 0.01% IGEPAL, 0.01 mg/mL yeast tRNA, 5 mM DTT, BSA, glycerol, 37 C, 4 h, 1-5 pM target; kinetics with 10; details: protein: recombinant, tags: 3xFLAG-SUMOEu1 (removed by SENPEuB cleavage)
[4] = target: T1, AGO2 (loaded with guide RNA); assay: filter binding; upper bound, ~5 pM; 18 mM HEPES pH 7.4, 100 mM K-acetate, 1 mM Mg-acetate, 0.01% IGEPAL, 0.01 mg/mL yeast tRNA, 5 mM DTT, BSA, glycerol, 37 C, 4 h, 1-5 pM target; kinetics with 10; details: protein: recombinant, tags: 3xFLAG-SUMOEu1 (removed by SENPEuB cleavage), label: 32P target, offset +2
[5] = target: T1, AGO2 (loaded with guide RNA); assay: filter binding; no boost over m11_23; 18 mM HEPES pH 7.4, 100 mM K-acetate, 1 mM Mg-acetate, 0.01% IGEPAL, 0.01 mg/mL yeast tRNA, 5 mM DTT, BSA, glycerol, 37 C, 4 h, 1-5 pM target; kinetics with 10; details: protein: recombinant, tags: 3xFLAG-SUMOEu1 (removed by SENPEuB cleavage), label: 32P target, offset +2
[6] = target: T1, AGO2 (loaded with guide RNA); assay: filter binding; not above no-site control; 18 mM HEPES pH 7.4, 100 mM K-acetate, 1 mM Mg-acetate, 0.01% IGEPAL, 0.01 mg/mL yeast tRNA, 5 mM DTT, BSA, glycerol, 37 C, 4 h, 1-5 pM target; kinetics with 10; details: protein: recombinant, tags: 3xFLAG-SUMOEu1 (removed by SENPEuB cleavage), label: 32P target
[7] = target: T1, AGO2 (loaded with guide RNA); assay: filter binding; modest boost over m11_23; 18 mM HEPES pH 7.4, 100 mM K-acetate, 1 mM Mg-acetate, 0.01% IGEPAL, 0.01 mg/mL yeast tRNA, 5 mM DTT, BSA, glycerol, 37 C, 4 h, 1-5 pM target; kinetics with 10; details: protein: recombinant; tags: 3xFLAG-SUMOEu1 (removed by SENPEuB cleavage); label: 32P target; g11-23 and g2-5 paired, offset +2
[8] = target: T1, AGO2 (loaded with guide RNA); assay: filter binding; Kd printed only in figure; similar to m11_23; 18 mM HEPES pH 7.4, 100 mM K-acetate, 1 mM Mg-acetate, 0.01% IGEPAL, 0.01 mg/mL yeast tRNA, 5 mM DTT, BSA, glycerol, 37 C, 4 h, 1-5 pM target; kinetics with 10; details: protein: recombinant, tags: 3xFLAG-SUMOEu1 (removed by SENPEuB cleavage), label: 32P target, seed g2-8 paired
[9] = target: AGO2 D669A (loaded with guide RNA) (Homo sapiens, UniProt Q9UKV8 1-859, D669A); assay: hydroxyl radical footprinting; guide 3' region more accessible; 18 mM HEPES pH 7.4, 100 mM K-acetate, 1 mM Mg-acetate, 0.01% IGEPAL, 0.01 mg/mL yeast tRNA, 5 mM DTT, BSA, glycerol, 37 C, 4 h, 1-5 pM target; kinetics with 10; details: protein: recombinant, tags: 3xFLAG-SUMOEu1
Chain of AGO2 D669A (loaded with guide RNA) (Q9UKV8 whole entry D669A): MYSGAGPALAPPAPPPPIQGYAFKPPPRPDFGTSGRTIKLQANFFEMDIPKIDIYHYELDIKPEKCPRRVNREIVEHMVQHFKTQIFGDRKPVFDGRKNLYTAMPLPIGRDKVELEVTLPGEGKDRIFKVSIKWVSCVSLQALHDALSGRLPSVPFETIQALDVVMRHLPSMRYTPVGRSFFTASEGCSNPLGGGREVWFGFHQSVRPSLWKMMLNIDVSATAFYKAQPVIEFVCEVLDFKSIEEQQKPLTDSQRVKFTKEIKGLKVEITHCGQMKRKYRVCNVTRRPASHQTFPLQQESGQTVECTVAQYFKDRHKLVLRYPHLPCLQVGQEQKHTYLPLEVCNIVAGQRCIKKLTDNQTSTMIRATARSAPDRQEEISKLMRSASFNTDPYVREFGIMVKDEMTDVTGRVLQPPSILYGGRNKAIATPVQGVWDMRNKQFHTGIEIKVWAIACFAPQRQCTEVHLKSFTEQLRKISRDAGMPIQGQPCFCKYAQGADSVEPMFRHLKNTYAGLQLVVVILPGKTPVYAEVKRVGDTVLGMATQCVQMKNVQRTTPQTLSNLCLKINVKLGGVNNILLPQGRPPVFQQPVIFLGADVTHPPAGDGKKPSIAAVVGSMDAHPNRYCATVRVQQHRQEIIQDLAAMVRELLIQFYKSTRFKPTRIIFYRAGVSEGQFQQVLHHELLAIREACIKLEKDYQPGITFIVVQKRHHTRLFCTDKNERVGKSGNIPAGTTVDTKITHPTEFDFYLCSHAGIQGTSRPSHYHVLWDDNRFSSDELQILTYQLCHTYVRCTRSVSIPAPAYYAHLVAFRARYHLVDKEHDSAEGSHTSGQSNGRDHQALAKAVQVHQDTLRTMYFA

[10] = label: 32P target, complementary to g9-19
[11] = label: 32P target, g13-22 paired

T1 sequence (Q9UKV8 whole entry): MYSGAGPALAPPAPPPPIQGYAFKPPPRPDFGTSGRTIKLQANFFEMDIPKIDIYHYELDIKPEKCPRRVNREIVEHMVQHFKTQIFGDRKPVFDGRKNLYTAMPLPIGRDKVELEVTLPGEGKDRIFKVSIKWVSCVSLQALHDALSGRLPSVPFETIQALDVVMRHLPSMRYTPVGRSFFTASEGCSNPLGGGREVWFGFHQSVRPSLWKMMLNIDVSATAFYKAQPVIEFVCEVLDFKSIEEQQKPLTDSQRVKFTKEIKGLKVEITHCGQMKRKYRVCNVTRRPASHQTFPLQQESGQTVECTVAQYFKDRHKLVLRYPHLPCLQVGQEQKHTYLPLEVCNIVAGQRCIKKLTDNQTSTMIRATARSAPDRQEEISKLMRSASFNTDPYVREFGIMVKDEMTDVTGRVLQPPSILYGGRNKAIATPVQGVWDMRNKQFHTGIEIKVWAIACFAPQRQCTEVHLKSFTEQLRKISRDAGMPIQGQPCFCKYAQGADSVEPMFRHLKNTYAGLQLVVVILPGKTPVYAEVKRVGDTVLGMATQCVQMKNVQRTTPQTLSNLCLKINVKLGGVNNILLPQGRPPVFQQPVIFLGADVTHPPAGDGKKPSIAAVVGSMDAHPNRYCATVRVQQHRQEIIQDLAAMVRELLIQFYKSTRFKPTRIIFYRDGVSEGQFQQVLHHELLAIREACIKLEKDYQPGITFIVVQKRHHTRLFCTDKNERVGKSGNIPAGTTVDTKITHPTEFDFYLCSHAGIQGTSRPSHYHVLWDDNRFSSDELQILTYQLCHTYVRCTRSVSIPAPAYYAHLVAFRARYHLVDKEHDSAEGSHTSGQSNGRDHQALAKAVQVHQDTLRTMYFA

B1: miR-124 wt / 7mer-m8 (mixed)
RNA 1: UAAGGCACGCGGUGAAUGCCAA
RNA 2: UUUUUUUUUUUGUGCCUUUUUUUU
modifications: 5'-phosphate guide
binding result [1]: binds

B2: let-7a / 7mer-m8 (mixed)
RNA 1: UGAGGUAGUAGGUUGUAUAGUU
RNA 2: UUUUUUUUUUUUUUUUUUCUACCUCUUUUUUU
modifications: 5'-phosphate guide
Kd ([2]; label: 32P target, seed g2-8 paired): < 0.005 nM

B3: miR-124 wt / m9_19 (mixed)
RNA 1: UAAGGCACGCGGUGAAUGCCAA
RNA 2: UUUUUUGCAUUCACCGCUUUUUUUUUUUUUUU
modifications: 5'-phosphate guide
Kd [3, 10]: ~0.205 nM

B4: miR-124 mut / m9_19 (mixed)
RNA 1: UCUGGCUCGCGGUGAAUGCCAA
RNA 2: UUUUUUGCAUUCACCGCUUUUUUUUUUUUUUU
modifications: 5'-phosphate guide
Kd [3, 10]: ~0.205 nM

B5: miR-155 mut / m11_23|+2|m2_7 (mixed)
RNA 1: UUCGUGCUAAUCGUGAUAGGGGU
RNA 2: UUUUACCCCUAUCACGACCUUUGCACGAUUUU
modifications: 5'-phosphate guide
Kd ([4]; g11-23 and g2-7 paired): < 0.005 nM

B6: miR-155 mut / m11_23|+2|m2_4 (mixed)
RNA 1: UUCGUGCUAAUCGUGAUAGGGGU
RNA 2: UUUUACCCCUAUCACGACCUUUUUUCGAUUUU
modifications: 5'-phosphate guide
binding result ([5]; g11-23 and g2-4 paired): binds

B7: miR-155 mut / m11_23|+2|m2_8 (mixed)
RNA 1: UUCGUGCUAAUCGUGAUAGGGGU
RNA 2: UUUUACCCCUAUCACGACCUUAGCACGAUUUU
modifications: 5'-phosphate guide
Kd ([4]; g11-23 and g2-8 paired): < 0.005 nM

B8: miR-155 mut / m11_23|+2|m2_3 (mixed)
RNA 1: UUCGUGCUAAUCGUGAUAGGGGU
RNA 2: UUUUACCCCUAUCACGACCUUUUUUUGAUUUU
modifications: 5'-phosphate guide
binding result ([5]; g11-23 and g2-3 paired): binds

B9: miR-155 wt / m13_20 (mixed)
RNA 1: UUAAUGCUAAUCGUGAUAGGGGU
RNA 2: UUUUUUUCCUAUCACUUUUUUUUUUUUUU
modifications: 5'-phosphate guide
binding result ([6]; g13-20 paired): no binding

B10: miR-155 mut / m11_23|+2|m2 (mixed)
RNA 1: UUCGUGCUAAUCGUGAUAGGGGU
RNA 2: UUUUACCCCUAUCACGACCUUUUUUUUAUUUU
modifications: 5'-phosphate guide
binding result ([5]; g11-23 and g2 paired): binds

B11: miR-155 mut / m13_20 (mixed)
RNA 1: UUCGUGCUAAUCGUGAUAGGGGU
RNA 2: UUUUUUUCCUAUCACUUUUUUUUUUUUUU
modifications: 5'-phosphate guide
binding result ([6]; g13-20 paired): no binding

B12: miR-155 mut / m11_23|+2|m2_5 (mixed)
RNA 1: UUCGUGCUAAUCGUGAUAGGGGU
RNA 2: UUUUUUACCCCUAUCACGACCUUUUUACGAUUUUUUUUUUUUUU
modifications: 5'-phosphate guide
binding result [7]: binds

B13: miR-155 mut / 7mer-m8 (mixed)
RNA 1: UUCGUGCUAAUCGUGAUAGGGGU
RNA 2: UUUUUUUUUAAAGCACGAUUUUUU
modifications: 5'-phosphate guide
binding result [8]: binds

B14: miR-155 mut / m11_23|+2|m1_8 (mixed)
RNA 1: UUCGUGCUAAUCGUGAUAGGGGU
RNA 2: UUUUUUACCCCUAUCACGACCUUAGCACGAAUUUUUUUUU
modifications: 5'-phosphate guide
Kd ([4]; g11-23 and g1-8 paired): < 0.005 nM

B15: miR-155 wt / m11_23|+2|m1_8 (mixed)
RNA 1: UUAAUGCUAAUCGUGAUAGGGGU
RNA 2: UUUUUUACCCCUAUCACGACCUUAGCAUUAAUUUUUUUUU
modifications: 5'-phosphate guide
binding result ([9]; label: 32P target (kon) or 32P guide (probing), g11-23 and g1-8 paired, offset +2): binds

B16: miR-155 wt / 7mer-m8 (mixed)
RNA 1: UUAAUGCUAAUCGUGAUAGGGGU
RNA 2: UUUUUUUUUAAAGCAUUAUUUUUU
modifications: 5'-phosphate guide
binding result [8]: binds

B17: let-7a / m11_22 (also labelled m10_22) (mixed)
RNA 1: UGAGGUAGUAGGUUGUAUAGUU
RNA 2: UUUUUAACUAUACAACCUUUUUUUUUUUUUUU
modifications: 5'-phosphate guide
Kd ([2]; g11-22 paired): ~0.4 nM

B18: miR-124 wt / m9_22|+3|m1_8 (mixed)
RNA 1: UAAGGCACGCGGUGAAUGCCAA
RNA 2: UUUUUUUUGGCAUUCACCGCUUUGUGCCUUAUUUUUUUUU
modifications: 5'-phosphate guide
binding result ([9]; label: 32P guide, g9-22 and g1-8 paired, offset +3): binds

B19: miR-155 wt / m13_22 (mixed)
RNA 1: UUAAUGCUAAUCGUGAUAGGGGU
RNA 2: UUUUUUCCCCUAUCACUUUUUUUUUUUUUUUU
modifications: 5'-phosphate guide
Kd [3, 11]: ~0.205 nM

B20: miR-155 mut / m13_22 (mixed)
RNA 1: UUCGUGCUAAUCGUGAUAGGGGU
RNA 2: UUUUUUCCCCUAUCACUUUUUUUUUUUUUUUU
modifications: 5'-phosphate guide
Kd [3, 11]: ~0.205 nM

B21: miR-124 mut / 7mer-m8 (mixed)
RNA 1: UCUGGCUCGCGGUGAAUGCCAA
RNA 2: UUUUUUUUUUUGAGCCAGUUUUUU
modifications: 5'-phosphate guide
binding result [1]: binds

B22: miR-124 mut / m11_18 (mixed)
RNA 1: UCUGGCUCGCGGUGAAUGCCAA
RNA 2: UUUUUUUUCAUUCACCUUUUUUUUUUUU
modifications: 5'-phosphate guide
binding result ([6]; g11-18 paired): no binding

B23: miR-124 wt / m9_22 (mixed)
RNA 1: UAAGGCACGCGGUGAAUGCCAA
RNA 2: UUUUUUUUGGCAUUCACCGCUUUUUUUUUUUUUUUU
modifications: 5'-phosphate guide
binding result ([9]; guide:target, complementary to g9-22): binds
Kd ([3]; complementary to g9-22): ~0.0265 nM

B24: miR-124 mut / m9_22 (mixed)
RNA 1: UCUGGCUCGCGGUGAAUGCCAA
RNA 2: UUUUUUUUGGCAUUCACCGCUUUUUUUUUUUUUUUU
modifications: 5'-phosphate guide
Kd ([3]; label: 32P target, complementary to g9-22): ~0.0265 nM

B25: miR-124 wt / m11_18 (mixed)
RNA 1: UAAGGCACGCGGUGAAUGCCAA
RNA 2: UUUUUUUUCAUUCACCUUUUUUUUUUUU
modifications: 5'-phosphate guide
binding result ([6]; g11-18 paired): no binding

B26: miR-155 mut / m11_23 (mixed)
RNA 1: UUCGUGCUAAUCGUGAUAGGGGU
RNA 2: UUUUUUACCCCUAUCACGACCUUUUUUUUUUUUUUU
modifications: 5'-phosphate guide
Kd ([3]; label: 32P target, g11-23 paired): ~0.0265 nM

B27: miR-155 wt / m11_23 (mixed)
RNA 1: UUAAUGCUAAUCGUGAUAGGGGU
RNA 2: UUUUUUACCCCUAUCACGACCUUUUUUUUUUUUUUU
modifications: 5'-phosphate guide
binding result ([9]; guide:target, g11-23 paired): binds
Kd ([3]; g11-23 paired): ~0.0265 nM

Reference: PMC12529927, “Functional microRNA targeting without seed pairing”
